Drawing on article PMC8131916, this text covers stoichiometry N for 1 substance.

Assay [1] deals with MM_0014, cis-prenyltransferase from Methanosarcina mazei (tag-free) (Methanosarcina mazei). As to the kind of experiment: crystal structure; MM_0014 cocrystallised with FPP and MgCl2 (co-FG), Index No. 89 reagent with glycerol 3:1, 20 °C; space group P2_(1)2_(1)2_(1), eight protein molecules per asymmetric unit; the same crystals soaked with DMAPP.
For assay [2] the target is unchanged. Put plainly: crystal structure; substrate-free MM_0014, hanging drop, Index No. 64 reagent with glycerol 3:1, 25 °C; space group C222_(1), two protein molecules per asymmetric unit; the same crystals soaked with IPP or DMAPP.

As for “MM_0014, cis-prenyltransferase from Methanosarcina mazei (tag-free) (enzyme)”, the stoichiometry N in assay [1] and in assay [2] was 2 each time.
